These results are taken from US20240239894A1 (AstraZeneca / MedImmune, published 2024).

One experiment addresses T1, huBTN3A2 (human, UniProt P78410 30-248, limits assumed).
T1 construct: Sourced antigen; construct not described; also called Human BTN3A2
Nature of the experiment: ELISA, absorbance 450 nm, antigen human BTN3A2 GST.

The target of the next experiment is T2, huB7-H2 (human, UniProt O75144 19-258).
T2 construct: Sourced antigen; construct not described; also called Human B7-H2
T2 sequence (looked up): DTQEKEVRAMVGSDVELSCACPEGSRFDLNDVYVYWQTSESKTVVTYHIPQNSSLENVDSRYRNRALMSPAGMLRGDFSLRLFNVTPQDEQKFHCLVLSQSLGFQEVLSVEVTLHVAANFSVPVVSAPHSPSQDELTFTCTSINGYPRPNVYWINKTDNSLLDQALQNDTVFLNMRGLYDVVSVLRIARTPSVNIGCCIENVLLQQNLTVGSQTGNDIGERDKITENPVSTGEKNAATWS
The experiment in a line: ELISA, absorbance 450 nm, antigen human B7-H2 (ECD) F10H.

Another experiment addresses T3, huBTN1A1 (human, UniProt Q13410 27-242, limits assumed).
T3 construct: Sourced antigen; construct not described; also called Human BTN1A1
T3 sequence (looked up): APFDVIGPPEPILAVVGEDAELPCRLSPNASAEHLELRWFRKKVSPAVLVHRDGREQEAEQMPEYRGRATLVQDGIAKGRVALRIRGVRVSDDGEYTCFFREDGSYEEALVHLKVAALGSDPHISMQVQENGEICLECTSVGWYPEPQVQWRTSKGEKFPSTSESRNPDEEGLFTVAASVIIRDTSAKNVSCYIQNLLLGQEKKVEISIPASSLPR
The experiment in a line: ELISA, absorbance 450 nm, antigen human BTN1A1 GST.

For the next experiment, the target named is T4, huB7-H1 (human, UniProt Q9NZQ7 19-238).
T4 construct: Sourced antigen; construct not described; also called Human B7-H1
T4 sequence (Q9NZQ7 19-238 limits assumed): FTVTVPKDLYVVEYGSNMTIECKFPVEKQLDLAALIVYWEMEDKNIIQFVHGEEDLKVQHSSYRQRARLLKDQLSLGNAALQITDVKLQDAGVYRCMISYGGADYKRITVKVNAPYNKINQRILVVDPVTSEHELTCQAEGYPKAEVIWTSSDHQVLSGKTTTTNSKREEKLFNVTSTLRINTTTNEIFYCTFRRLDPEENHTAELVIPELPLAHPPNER
Nature of the experiment: ELISA, absorbance 450 nm, antigen human B7-H1(ECD) F10H. Background: In an ELISA, binding on a coated surface is turned into a signal by an enzyme label.

Another experiment deals with T5, huB7-H3 (human, UniProt Q5ZPR3 29-461, limits assumed).
T5 construct: Sourced antigen; construct not described; also called Human B7-H3
T5 sequence (looked up): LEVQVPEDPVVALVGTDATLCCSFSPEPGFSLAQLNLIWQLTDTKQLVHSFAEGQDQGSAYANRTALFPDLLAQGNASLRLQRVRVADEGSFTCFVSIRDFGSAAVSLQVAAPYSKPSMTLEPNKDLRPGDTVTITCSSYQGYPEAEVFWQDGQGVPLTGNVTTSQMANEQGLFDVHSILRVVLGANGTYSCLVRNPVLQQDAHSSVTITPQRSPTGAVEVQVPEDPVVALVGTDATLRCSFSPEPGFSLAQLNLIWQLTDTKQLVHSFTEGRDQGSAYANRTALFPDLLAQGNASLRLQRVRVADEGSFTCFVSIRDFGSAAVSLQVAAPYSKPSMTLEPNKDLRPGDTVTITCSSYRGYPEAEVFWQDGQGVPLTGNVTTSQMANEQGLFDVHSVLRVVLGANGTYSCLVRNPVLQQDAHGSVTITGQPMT
Nature of the experiment: ELISA, absorbance 450 nm, antigen human B7-H3 (ECD) Fc.

A further experiment has as its target T6, huHHLA2 (human, UniProt Q9UM44 23-344).
T6 construct: Sourced antigen; construct not described; also called Human HHLA2
T6 sequence (looked up): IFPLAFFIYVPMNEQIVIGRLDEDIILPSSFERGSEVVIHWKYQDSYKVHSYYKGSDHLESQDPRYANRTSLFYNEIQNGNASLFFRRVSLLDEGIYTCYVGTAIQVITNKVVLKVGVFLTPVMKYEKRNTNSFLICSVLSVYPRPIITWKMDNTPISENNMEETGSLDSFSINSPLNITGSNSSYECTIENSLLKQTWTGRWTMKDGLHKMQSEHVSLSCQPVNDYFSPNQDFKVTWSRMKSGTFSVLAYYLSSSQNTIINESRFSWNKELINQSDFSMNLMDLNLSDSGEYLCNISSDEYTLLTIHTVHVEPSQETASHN
Nature of the experiment: ELISA, absorbance 450 nm, antigen human HHLA2 GST.

Experiment [1] addresses T7, Human B7-H4-Fc (Human B7H4 ECD, Fc_6His) (human).
T7 construct: also called FcHis6 tagged human B7-H4
T7 sequence (Q7Z7D3 whole entry, looked up): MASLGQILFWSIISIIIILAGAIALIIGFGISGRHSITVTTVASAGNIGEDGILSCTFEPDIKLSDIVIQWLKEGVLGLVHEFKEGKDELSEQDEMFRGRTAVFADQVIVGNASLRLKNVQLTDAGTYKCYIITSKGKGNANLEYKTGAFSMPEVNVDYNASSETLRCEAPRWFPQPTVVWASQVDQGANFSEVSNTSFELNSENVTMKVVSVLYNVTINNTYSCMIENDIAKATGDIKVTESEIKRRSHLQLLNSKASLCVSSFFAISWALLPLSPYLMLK
Nature of the experiment: HTRF binding, murine IgG1. For orientation: TR-FRET usually uses a lanthanide donor and a delayed reading to cut background.

The target of experiment [2] is T8, Murine B7-H4-Fc (Mouse B7H4 ECD, Fc_6His) (mouse, UniProt Q7TSP5 25-257).
T8 construct: extracellular domain; also called mouse B7-H4-Fc; FcHis6 tagged murine B7-H4
T8 sequence (Q7TSP5 whole entry, looked up): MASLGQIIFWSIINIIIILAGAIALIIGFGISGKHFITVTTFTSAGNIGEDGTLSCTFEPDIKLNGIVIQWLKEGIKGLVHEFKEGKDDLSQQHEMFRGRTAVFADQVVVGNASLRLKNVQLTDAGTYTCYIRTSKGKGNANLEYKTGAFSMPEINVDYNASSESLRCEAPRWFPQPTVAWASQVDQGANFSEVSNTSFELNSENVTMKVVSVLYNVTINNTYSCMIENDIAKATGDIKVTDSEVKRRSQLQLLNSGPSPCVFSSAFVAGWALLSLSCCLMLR
The experiment in a line: HTRF binding, murine IgG1.

The target of experiment [3] is T9, Cyno B7-H4-Fc (Cyno B7H4 ECD, FcTM_6His) (cynomolgus monkey).
T9 construct: extracellular domain; also called cynomolgus B7-H4-Fc
Nature of the experiment: HTRF binding, murine IgG1.

For the next experiment, the target named is T10, huBTNL3 (human, UniProt Q6UXE8 18-237, limits assumed).
T10 construct: Sourced antigen; construct not described; also called Human BTNL3
T10 sequence (looked up): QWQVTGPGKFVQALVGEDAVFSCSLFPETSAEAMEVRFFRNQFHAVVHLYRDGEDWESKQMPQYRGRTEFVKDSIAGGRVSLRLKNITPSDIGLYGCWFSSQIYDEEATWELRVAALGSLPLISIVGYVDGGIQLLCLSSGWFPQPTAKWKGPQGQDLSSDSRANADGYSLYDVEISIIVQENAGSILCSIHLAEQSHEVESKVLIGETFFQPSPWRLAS
The experiment in a line: ELISA.

Another experiment deals with T11, huBTN2A1 (human, UniProt Q7KYR7 29-248, limits assumed).
T11 construct: Sourced antigen; construct not described; also called Human BTN2A1
T11 sequence (looked up): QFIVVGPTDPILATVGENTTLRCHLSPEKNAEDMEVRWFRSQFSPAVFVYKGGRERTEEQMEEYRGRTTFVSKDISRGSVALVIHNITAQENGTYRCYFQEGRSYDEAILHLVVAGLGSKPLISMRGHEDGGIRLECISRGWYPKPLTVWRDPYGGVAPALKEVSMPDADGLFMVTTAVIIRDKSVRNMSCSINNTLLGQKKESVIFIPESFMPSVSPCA
The experiment in a line: ELISA.

T1 sequence (P78410 30-248 limits assumed): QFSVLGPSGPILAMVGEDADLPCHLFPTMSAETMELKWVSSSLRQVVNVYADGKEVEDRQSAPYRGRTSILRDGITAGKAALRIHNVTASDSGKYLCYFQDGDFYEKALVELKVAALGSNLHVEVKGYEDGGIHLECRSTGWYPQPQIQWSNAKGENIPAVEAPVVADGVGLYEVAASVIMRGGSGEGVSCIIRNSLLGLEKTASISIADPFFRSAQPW

B1: human ZY0EP0-C07 (antibody, V domains shown)
VH: QVQLVESGGVLVKPGGSLRLSCAASGFTLSDYYMSWIRQAPGMGLEWVSYISSSGSTIYYTDSVKGRFTISRDSAKNSLYLQMNSLRAEDTAVYYCARDGVGFDYWGQGTLVTVSS
VL: EIVLTQSPGTLSLFPGERATLSCRASQSVSSSYLAWYQQKPGQSPRLLIYAASSRATGIPDRFSGSGSGTDFTLTISRLEPEDFAVYYCQQYGSSPLYTFGQGTKLEIK
For B1, the binding result with huBTN3A2 is recorded as “no binding (tested: about 10 µg/ml (antigen))”; with huB7-H2, “no binding (tested: 10 µg/ml (antigen))”; in the experiment with huBTN1A1, “no binding (tested: 10 µg/ml (antigen))”; with huB7-H1, “no binding (tested: 10 µg/ml (antigen))”; with huB7-H3 it was “no binding”; with huHHLA2, “no binding (tested: about 10 µg/ml (antigen))”.

B2: human ZY0EPQ-E02 (antibody, V domains shown)
VH: QVQLQQWGAGLLKPSETLSLTCAVYGGSFSGYYWNWIRQPPGKGLEWIGEINHSGSTNYNPSLKSRVTILVDTSKNQFSLKLSSVTAADTAVYYCARNLYNWNLDSWGQGTLVTVSS
VL: DIQMTQSPSSLSASVGDRVTITCRASQGIRNDLGWYQQKPGRAPKRLIYVASSLQSGVPSRFSGSGSGTEFTLTISSLQPEDFATYYCLQHNSYPRTFGQGTKVEIK
For B2, the binding result with huBTN3A2 was “no binding (tested: about 10 µg/ml (antigen))”; with huB7-H2, “no binding (tested: 10 µg/ml (antigen))”; with huBTN1A1, “no binding (tested: 10 µg/ml (antigen))”; with huB7-H1, “no binding (tested: 10 µg/ml (antigen))”; with huB7-H3, “no binding”; in the experiment with huHHLA2, “no binding (tested: about 10 µg/ml (antigen))”.

B3: ZY0EOB-F05 murine IgG1 (antibody, V domains shown)
VH: QVQLQESGPGLVKPSQTLSLTCTVSDGSISSGGYYWSWIRQHPGKGLEWIGNIYYSGSTYYNPSLKSRVTISVDTSKNQFSLKLNSVTAADTAVYYCATEKALATVTPSGYENYYTVDVWGQGTTVTVSS
VL: DIQLTQSPSFLSASVGDRVTITCWASQGISSYLAWYQQKPGKAPKLLIYAASTLQSGVPSRFSGSGSGTEFTLTISSLQPEDFATYYCQHLNSYPLTFGGGTKVEIK
With B3, the binding result with huBTN3A2 is “no binding (tested: about 10 µg/ml (antigen))”; with huB7-H2, “no binding (tested: 10 µg/ml (antigen))”; with huBTN1A1, “no binding (tested: 10 µg/ml (antigen))”; in the experiment with huB7-H1, “no binding (tested: 10 µg/ml (antigen))”; with huB7-H3 it was “no binding”; in the experiment with huBTNL3 it was “no binding”. For the same molecule, the figures for the binding result in the experiment with huBTN2A1 and in the experiment with huHHLA2 were “no binding” and “no binding (tested: about 10 µg/ml (antigen))”, respectively. In addition, the EC50 in experiment [1] was 0.3 nM; in [2], 0.38 nM; in experiment [3], 0.32 nM. The Max in [1] stood at 3020; in experiment [2], 2190; in experiment [3], 2400.

B4: human ZY0EOB-F05 (antibody, V domains shown)
VH: QVQLQESGPGLVKPSQTLSLTCTVSDGSISSGGYYWSWIRQHPGKGLEWIGNIYYSGSTYYNPSLKSRVTISVDTSKNQFSLKLNSVTAADTAVYYCATEKALATVTPSGYENYYTVDVWGQGTTVTVSS
VL: DIQLTQSPSFLSASVGDRVTITCWASQGISSYLAWYQQKPGKAPKLLIYAASTLQSGVPSRFSGSGSGTEFTLTISSLQPEDFATYYCQHLNSYPLTFGGGTKVEIK
As for B4, the binding result with huBTN3A2 is given as “no binding (tested: about 10 µg/ml (antigen))”; in the experiment with huB7-H2 it was “no binding (tested: 10 µg/ml (antigen))”; in the experiment with huBTN1A1, “no binding (tested: 10 µg/ml (antigen))”; with huB7-H1 it was “no binding (tested: 10 µg/ml (antigen))”; in the experiment with huB7-H3 it was “no binding”; with huHHLA2, “no binding (tested: about 10 µg/ml (antigen))”.

B5: human ZY0EO5-E07 (antibody, V domains shown)
VH: QVQLQESGPGLVKPSQTLSLTCTVSGGSISSGGYYWSWIRQHPGKGLEWIGNIYYSGSTYYNPSLKSRVTISVDTSKNQFSLKLSSVTAADTAVYYCAREKALASVIPSGYENYYVVDVWGQGTTVTVSS
VL: DIQLTQSPSFLSASVGGRVTITCWASQGIAGYLAWYQQKPGKAPKLLIYAASTLQSGVPSRFSGSGSGTEFTLTISSLQPEDFATYYCQHLNSYPLTFGGGTKVEIK
Turning to B5, the binding result in the experiment with huBTN3A2 is on record as “no binding (tested: about 10 µg/ml (antigen))”; with huB7-H2 it was “no binding (tested: 10 µg/ml (antigen))”; in the experiment with huBTN1A1 it was “no binding (tested: 10 µg/ml (antigen))”; in the experiment with huB7-H1 it was “no binding (tested: 10 µg/ml (antigen))”; with huB7-H3, “no binding”; with huHHLA2, “no binding (tested: about 10 µg/ml (antigen))”.

As usually defined, the EC50 is the concentration giving half of the maximal effect.
